Assay results from the nanobody polyreactivity screen of Harvey et al. (2022).

Assay: yeast display, Sf9 membrane polyspecificity reagent, FACS + sequencing; frameworks hold sequencing errors
Summary of the method: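 After 36–48 hours of galactose induction, yeast (Saccharomyces cerevisiae BJ5465) displaying a synthetic nanobody library were stained at 4 °C for 1 hour with 10% biotinylated, detergent-solubilized Sf9 membrane reagent. Streptavidin microbeads enriched the stained cells before FACS sorting into low and high (top ~1%) gates on anti-HA and streptavidin fluorescence. Each clone's polyreactivity label reflects its gate of origin.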

Row | Sequence | polyreactivity (PSR sort gate)
1 | QVQIVESGGGLVQAGGSLRISCAPSGLIFAYYAMGRYRQAPGKERELVAAISSVGSTYYADSVKGRFTISRDNAKNTVYLQMNSLKPEDTAVYYCAAALYPYYWPEYNYWGQGTQVNVSS | high polyreactivity
2 | QVQVVESGGGLVQAGGSLRLSCAASGFIFRYYAMGWYRQAPGKEREFVAAISTSAGSTYYADSVKGRFTISRDNAKNTVYLQMNSLKPEDTAVSYCAAEYWRRASYNYWGQGTQVTVSS | high polyreactivity
3 | QVQLVESGGGLVQAGGSLRLSCAASGRTFSYYAMGWYRQAPGKERELVAAISSGGSTNYADSVKGRFTISRDNAKNTVYLQMNSLKPEDPAFYYCANSSIWGSGRVRWVTYYFWGQGTQVTVSS | low polyreactivity
4 | QVQLVESGGGLVQAGGSLRLSCAASGSIFVPYTMGWYRQAPGKERELVASISYSGGTTYYADSVKGRFTISRDNAKNTVYLQMNSLKPEDTAVYYCAAQTLDGYDYWGQGTQVTVSS | low polyreactivity
5 | QVQLVESGGGLVQAGGSLRLSCAASGSIFGYYAMGWYRQAPGKERELVARISYSGGTTYYADSVKGRFTISRDNAKNTVYLQMNSLKPEDTAVYYCNARIPYSWRYGYWGQGTQVTVSS | high polyreactivity
6 | QVQLVESGGGLVQAGGSLRISCAASGITFQSNAMGWYRQAPGTERELVAGITGNGGSTYYADSVKGRFTISRDNAKNTVYLQMNSLKPEDTAVYYCNIGRRKRTRYDYWGQGTQGTVSS | high polyreactivity
7 | QVQLVESGGGLVQAGGSLRLSCAASGSIFGGYPMGWYRQAPGKERELVAAITYSAGNTYYADSVKGRFTISRDNAKNTFYVQMNSLKPEDTAVYYCNAVTKHRAITNMDYWGQGTQVTVSS | high polyreactivity
8 | QVQLVESGGGLVQAGGSLRLSCAASGSTFGGNAMGWYRQAPGKERELVAAISSGGTTNYADSVKGRFTISRDNAKNTVDLQMNSLKPEDTAVYYCNKPHRWPQAGYGYWGQGTQVTVSS | high polyreactivity
9 | QVQLVESGGGLVQAGGSLRLSCAASGSIFYWNTMGWYRQAPGKERELVAAIRRGGNTYYADSVKGRFTISRDNAKNTVYLQMNCLKPEDTAVYYCNRDGTYVYHGGEYWGQGTQVTVSS | low polyreactivity
10 | QVQLVESGGGLVQAGGSLRLSCAASGFIFGKYAMGWYRQAPGKERELVAAITSDGRTYYADSVKGRFTISRDNAKNTVYLQMNSLKPEDTAVYYSAATRYGHRYYYRPYEYWGQGSQVTVSS | high polyreactivity
11 | QVQLVESGGGLVQAGGSLRLSCAASGRIFQRYAMGWYRQAPGKERELVAGITSSGGSTYYADSVKGRFTISRDNAKNTVYLQMNSLKPEDTAVYYCNAGGELRYYGYRAGGTTRSYDYWGQGTQVTVSS | low polyreactivity
12 | QVQLVESGGGLVQAGGSLSLSCAASGIIFVDYAMGWYRQAPGKERELVAVIRSAGSTYYADSVKGRFTISRDNAKNTVYLQMNSLKPEDTAVYYCNARARGARRYYYWGQGTQVTVSS | high polyreactivity
13 | QVQLVESGGGLVQAGGSLRLSCAASGFTFAYYAMGWYRQAPGKERELVASITSGGSTYYADSVKGRFTISRDNAKNTVYLQMNSLKPEATAVYYCAARVRSELIKRYYWGQGTQVTVSS | high polyreactivity
14 | QVQLVESGGGLVQAGGSLRLSCAASGIILGVYAMGWYRQAPGKEREFVAAITSSGGSTYYADSVKGRFTISRDNAKNTVYLQMNSLKPEDTAVYYCAADFDTSVRLYGPTRYDYWGQGTQVTVSS | low polyreactivity
15 | QVQLVESGGGLVQAGGSLRLSCAASGITFYRYAMGWYRQAPGKERELVAAISKRGGTTYYADSVKGRFTISRDNAKNTVYLQMNSLKPEDTAVYYCNKAKTAYRGQYDYWGQGTQVTVSS | high polyreactivity
16 | QDQLVESGGCLVQAGGSLRLSCAASGSIFKRNAMGWYRQAPGKERELVASISWSGTRTYYADSVKGRFTISRDNAKNTVYLQMNSLKPEDTAVYYCARRIYGGHPSQSTQGDFYYWGHGTQVTVSS | high polyreactivity
17 | QVQLVESGGGLVQAGGSLRLSCAASGRILYAYAMGWYRQAPGKERELVAAITWGGGNTYYADSVKGRFTISRDNAKNTVYLQMNSLKPEDTAVYYCAADASTVYSTVPEYDFWGQGTQVTVSS | low polyreactivity
